assay: soluble on expression in E. coli; label from the status in PepcDB or PDB records

Sequence | soluble on expression in E. coli
MIVLIDNYDSFTYNLYQLLGEYEEEIVVVRNDQITIEQLEEMNPKGIVLSPGPGKPEEAGICIEVIRHFYKNVPILGICLGHQAIISAFGGEIVRAERIKHGKTSRAKHNGTSIFSYVTQPLTAMRYHSLVAAQTSLPQCFDILATAMDDGEIMAVRHNYYPLFGLQFHPESIATEEGGKLIRAFLGEVKEEERV | not soluble
MIVRPVTSADLPALIELARSTGTGLTTLPANEQRLQHRVSWAEKAFRGEAERGDADYLFVLEDDAGKVVGISAIAGAVGLREPWYNYRVGLTVSASQELNIHREIPTLFLANDLTGNSELCSLFLHADHRSGLNGKLLSRARFLFIAEFRHLFGDKLIAEMRGMSDEEGRSPFWESLGRHFFKMEFSQADYLTGVGNKAFIAELMPKFPLYTCFLSEEARGVIGRVHPNTEPALAMLKAEGFSYQGYVDIFDAGPAIEAETDKIRAIAESQNLVLAVGTPGDDAEPYLIHNRKREDCRITAAPARAAAGTLVVDPLTAKRLRLSAGASVRAVPLSAQKRG | not soluble
MIVTEHLFAIEDQTECLISALLESDAVQNYKETKKAMYASAEVAQLQKAFLEAKSAFERVEAYGIHAPDFREKQRALRKAKRALDLNEIVANYRFAETNVQTLLDTIGLKIAQLISEDIKVDAGNPFFERGKKHSGCGGSCHAS | not soluble
MIYMSEIIEVIYEDGVLKPLKPLKIKGKKRLKIKIVNDDVEEFLKSMIIKKCKDIDYKKLKEAYYESFLEHHHHHH | not soluble
MIYRFTIISDEVDDFVREIQIDPEATFFDLHEAILKAANYTNDQMTSFFICDDDWEKEKEITLEEMDNNPEMDSWIMKETRLNELIEDEKQKLLYVFDYMTERCFFIELSEIITGKEIKGAKCTKKSGEAPKQTVDFEEMAAGGGSLDLDENFYGDQDFDMEDFDAEGFDVNDGAAGGGSSYDEDKFLEHHHHHH | soluble
MIYSFRNSGFRDPETGVYNQTYFMEVFNREWHRHIREQQSLALLYLCPHIHETVKQPHLLEFFTKQVQEALLRATDLIARLDHNHFALGLFNIDEEGTEVVLKRIGQHIQDFNQEFGKNHKLKIDYKLAACLCLPTQEQKIESMFNNVSKLSQELERSPQQSQALIKLQ | not soluble
MIYSMTAYARKEVKGNWGSAVWEIRSVNQRYLETYFRMPEQFRALEPVLRERFRKRLARGKVECSLRFEANPAAKAELSINEALATQVIKAAEQVMHMTGELSRINPFQVMQWPGVMETPEQNMDEVNKELLAAFDEAISEFIEARGREGDNMKALIEQRLDAITAEVVKVRARMPEILEWQRERLFSKFEDAKIELDASRVEQELILLAQKSDVAEELDRLDSHVKETTNILKKGGAVGRRLDFMMQEFNRESNTLASKSISTDITASGVELKVLIEQMREQIQNIE | not soluble
MKAARQQAIVDLLINHKSLTTEALATRLNVSKETIRRDLSELQTQGKVLRNHGRAKYIHRENQDSGDPFHIRLKSHYAHKADIAREALAWIEEGMTIALDASSTCWYLARQLPDIPIQVFTNSHPICQELGKRERIALISSGGQLERKYGCYVNPSLISQLKSLDIDLFIFSCEGIDGGGDLWDSNAINADFKSILLRRASQSLLLIDKSKFNRSGEARIGHLDDVTHIVSDAPQSLEHHHHHH | not soluble
MKAFEFLYEDFQRGLTVVLDKGLPPKFVEDYLKVCGDYIDFVKFGWGTSAVIDRDVVKEKINYYKDWGIKVYPGGTLFEYAYSKGKFDEFLNECEKLGFEAVEISDGSSDISLEERNNAIKRAKDNGFMVLTEVGKKMPDKDKQLTIDDRIKLINFDLDAGADYVIIEGRESGKGKGLFDKEGKVKENELDVLAKNVDINKVIFEAPQKSQQVAFILKFGSSVNLANIAFDEVISLETLRRGLRGDTFGKV | soluble
MKAILQRSIALLALAAGMSSVACADEVKMRVLGWYGNQPQSQQVERPFWKDLPKRSNGAFSANFRTIDELGLKGFESLRTLQSGAFDVVSFQISFVGGDAPVLMGADLPGAAFDFDQLQKNLDAYRPILEKELNDRFKAKLLTAWSFPFQILYCKGDIKTLDDLKGKKVRVSGTYTAKMVADLNAAGATLAGPEVYQGLMQGVVDCAITGSQYGNSNDWFEVAHSLSPIPLGGAGVVLQVARNAFWDKLSADQQAALSAEMKQLETALWDISRKGHEDGINCNVGKQPCTGKPGKMQLVEPTEADVREVKQLLKTSIVPMWIEDCSKFSKTCGDDWFRTIGAAAGIARLEHHHHHH | not soluble

From the DeepSol protein solubility set
